Measurements published in patent US20200199204A1 (UNITED STATES OF AMERICA AS REPRESENTED BY THE SECRETARY …, published 2020).

Experiments:
Assay in all cases: cell-based or functional assay
HIV-1 Env of Q23.17 = HIV-1 Env of Q23.17 (HIV-1)
HIV-1 Env of DU422.01 = HIV-1 Env of DU422.01 (HIV-1)
HIV-1 Env of RHPA.7 = HIV-1 Env of RHPA.7 (HIV-1)
HIV-1 Env of 191821.E6.1 = HIV-1 Env of 191821.E6.1 (HIV-1)
HIV-1 Env of ZM53.12 = HIV-1 Env of ZM53.12 (HIV-1)
HIV-1 Env of PVO.04 = HIV-1 Env of PVO.04 (HIV-1)
HIV-1 Env of KER2018.11 = HIV-1 Env of KER2018.11 (HIV-1)
HIV-1 Env of ZM249.1 = HIV-1 Env of ZM249.1 (HIV-1)
HIV-1 Env of CAP45.G3 = HIV-1 Env of CAP45.G3 (HIV-1)
HIV-1 Env of SC422.8 = HIV-1 Env of SC422.8 (HIV-1)
HIV-1 Env of MB539.2B7 = HIV-1 Env of MB539.2B7 (HIV-1)
HIV-1 Env of Q769.d22 = HIV-1 Env of Q769.d22 (HIV-1)
HIV-1 Env of CM244.ec1 = HIV-1 Env of CM244.ec1 (HIV-1)
HIV-1 Env of AC10.29 = HIV-1 Env of AC10.29 (HIV-1)
HIV-1 Env of DU156.12 = HIV-1 Env of DU156.12 (HIV-1)
HIV-1 Env of CAP256.SU = HIV-1 Env of CAP256.SU (HIV-1)
HIV-1 Env of ZM135.10a = HIV-1 Env of ZM135.10a (HIV-1)
HIV-1 Env of 96ZM651.02 = HIV-1 Env of 96ZM651.02 (HIV-1)
HIV-1 Env of 3016.V5.c36 = HIV-1 Env of 3016.V5.c36 (HIV-1)
HIV-1 Env of CAAN.A2 = HIV-1 Env of CAAN.A2 (HIV-1)
HIV-1 Env of TRO.11 = HIV-1 Env of TRO.11 (HIV-1)
HIV-1 Env of THRO.18 = HIV-1 Env of THRO.18 (HIV-1)
HIV-1 Env of ZM109.4 = HIV-1 Env of ZM109.4 (HIV-1)
HIV-1 Env of UG037.8 = HIV-1 Env of UG037.8 (HIV-1)
HIV-1 Env of CAP256.PI = HIV-1 Env of CAP256.PI (HIV-1)
HIV-1 Env of CAP210.E8 = HIV-1 Env of CAP210.E8 (HIV-1)
HIV-1 Env of QH0692.42 = HIV-1 Env of QH0692.42 (HIV-1)
HIV-1 Env of Q842.d12 = HIV-1 Env of Q842.d12 (HIV-1)
HIV-1 Env of Q461.e2 = HIV-1 Env of Q461.e2 (HIV-1)
HIV-1 Env of ZM214.15 = HIV-1 Env of ZM214.15 (HIV-1)
HIV-1 Env of REJO.67 = HIV-1 Env of REJO.67 (HIV-1)
HIV-1 Env of Q168.a2 = HIV-1 Env of Q168.a2 (HIV-1)
HIV-1 Env of ZM233.6 = HIV-1 Env of ZM233.6 (HIV-1)
HIV-1 Env of MB201 = HIV-1 Env of MB201 (HIV-1)
HIV-1 Env of C1080.c3 = HIV-1 Env of C1080.c3 (HIV-1)
HIV-1 Env of 6405.v4.c34 = HIV-1 Env of 6405.v4.c34 (HIV-1)
HIV-1 Env of RW020.2 = HIV-1 Env of RW020.2 (HIV-1)
HIV-1 Env of Q259.d2.17 = HIV-1 Env of Q259.d2.17 (HIV-1)
HIV-1 Env of ZM197.7 = HIV-1 Env of ZM197.7 (HIV-1)
HIV-1 Env of 6535.3 = HIV-1 Env of 6535.3 (HIV-1)
HIV-1 Env of WITO.33 = HIV-1 Env of WITO.33 (HIV-1)
HIV-1 Env of 0260.v5.c36 = HIV-1 Env of 0260.v5.c36 (HIV-1)
HIV-1 Env of KER2008.12 = HIV-1 Env of KER2008.12 (HIV-1)
HIV-1 Env of DU172.17 = HIV-1 Env of DU172.17 (HIV-1)
HIV-1 Env of TRJO.58 = HIV-1 Env of TRJO.58 (HIV-1)
HIV-1 Env of CAP244.D3 = HIV-1 Env of CAP244.D3 (HIV-1)
HIV-1 Env of BG505.w6m = HIV-1 Env of BG505.w6m (HIV-1)

B1: CAP256-VRC26.09 (antibody, V domains shown)
VH: EVQLVESGGGVVQPGRSLTLSCAASQFNFANYGMHWVRQAPGKGLEWVASISNDGTKKYHEESVWGRFTISKDNSKSTLFLQMNSLRIEDTALYFCVKDQREDECEEWWSDYYDFGRELPCRKSRGLGLAGIFDMWGHGTMVTVSS
VL: QSALTQPPSVSAAPGQKVTISCSGNSSNIGNNFVSWYQQLPGTAPKLLIYENNRRPSGIPDRFSGSKSGTSATLAISGLQTGDEADYWCAVWGVRRGAGAVFGAGTKVTVLG
HIV-1 Env of Q23.17
  neutralization IC50: 9.5 µg/mL
HIV-1 Env of DU422.01
  neutralization IC50: 0.023 µg/mL
HIV-1 Env of RHPA.7
  neutralization IC50: > 50 µg/mL
HIV-1 Env of 191821.E6.1
  neutralization IC50: 0.054 µg/mL
HIV-1 Env of ZM53.12
  neutralization IC50: 0.002 µg/mL
HIV-1 Env of PVO.04
  neutralization IC50: > 50 µg/mL
HIV-1 Env of KER2018.11
  neutralization IC50: 0.002 µg/mL
HIV-1 Env of ZM249.1
  neutralization IC50: 0.01 µg/mL
HIV-1 Env of CAP45.G3
  neutralization IC50: 16 µg/mL
HIV-1 Env of SC422.8
  neutralization IC50: > 50 µg/mL
HIV-1 Env of MB539.2B7
  neutralization IC50: 40.7 µg/mL
HIV-1 Env of Q769.d22
  neutralization IC50: > 50 µg/mL
HIV-1 Env of CM244.ec1
  neutralization IC50: 0.105 µg/mL
HIV-1 Env of AC10.29
  neutralization IC50: > 50 µg/mL
HIV-1 Env of DU156.12
  neutralization IC50: 0.016 µg/mL
HIV-1 Env of CAP256.SU
  neutralization IC50: 0.002 µg/mL
HIV-1 Env of ZM135.10a
  neutralization IC50: > 50 µg/mL
HIV-1 Env of 96ZM651.02
  neutralization IC50: 0.991 µg/mL
HIV-1 Env of 3016.V5.c36
  neutralization IC50: 0.004 µg/mL
HIV-1 Env of CAAN.A2
  neutralization IC50: > 50 µg/mL
HIV-1 Env of TRO.11
  neutralization IC50: > 50 µg/mL
HIV-1 Env of THRO.18
  neutralization IC50: > 50 µg/mL
HIV-1 Env of ZM109.4
  neutralization IC50: > 50 µg/mL
HIV-1 Env of UG037.8
  neutralization IC50: > 50 µg/mL
HIV-1 Env of CAP256.PI
  neutralization IC50: > 50 µg/mL
HIV-1 Env of CAP210.E8
  neutralization IC50: 0.002 µg/mL
HIV-1 Env of QH0692.42
  neutralization IC50: > 50 µg/mL
HIV-1 Env of Q842.d12
  neutralization IC50: 10.1 µg/mL
HIV-1 Env of Q461.e2
  neutralization IC50: 0.705 µg/mL
HIV-1 Env of ZM214.15
  neutralization IC50: 0.333 µg/mL
HIV-1 Env of REJO.67
  neutralization IC50: > 50 µg/mL
HIV-1 Env of Q168.a2
  neutralization IC50: 0.181 µg/mL
HIV-1 Env of ZM233.6
  neutralization IC50: 0.001 µg/mL
HIV-1 Env of MB201
  neutralization IC50: > 50 µg/mL
HIV-1 Env of C1080.c3
  neutralization IC50: 0.019 µg/mL
HIV-1 Env of 6405.v4.c34
  neutralization IC50: > 50 µg/mL
HIV-1 Env of RW020.2
  neutralization IC50: > 50 µg/mL
HIV-1 Env of Q259.d2.17
  neutralization IC50: 0.008 µg/mL
HIV-1 Env of ZM197.7
  neutralization IC50: 0.011 µg/mL
HIV-1 Env of 6535.3
  neutralization IC50: > 50 µg/mL
HIV-1 Env of WITO.33
  neutralization IC50: > 50 µg/mL
HIV-1 Env of 0260.v5.c36
  neutralization IC50: > 50 µg/mL
HIV-1 Env of KER2008.12
  neutralization IC50: > 50 µg/mL
HIV-1 Env of DU172.17
  neutralization IC50: > 50 µg/mL
HIV-1 Env of TRJO.58
  neutralization IC50: > 50 µg/mL
HIV-1 Env of CAP244.D3
  neutralization IC50: > 50 µg/mL
HIV-1 Env of BG505.w6m
  neutralization IC50: 0.054 µg/mL
